Measurements as given in patent publication US20080194611A1, “Modulation of Cell Barrier Dysfunction” (priority 2005, published 2008).

What was measured:
[1] = tested on: cultured epithelial cells (MDCK, T-84, Caco-2bbe); experiment: Epithelial permeability / TEER after purified PA-I; type: cell-based; details: MDCK monolayers; purified protein
[2] = Cecal instillation of purified PA-I with cytotoxins in mice

B1: PA-I: purified lectin/adhesin protein of P. aeruginosa (protein, UniProt Q05097 2-122, looked up)
PA-I galactophilic lectin: AWKGEVLANNEAGQVTSIIYNPGDVITIVAAGWASYGPTQKWGPQGDREHPDQGLICHDAFCGALVMKIGNSGTIPVNTGLFRWVAPNNVQGAITLIYNDVPGTYGNNSGSFSVNIGKDQS
- TEER of epithelial cells [1]: decreased the TEER of epithelial cells to the same degree as P. aeruginosa
- mortality, compound alone ([2]; cecal injection): had no effect
- mortality, combination with exotoxin A or elastase ([2]; cecal instillation, surgically stressed and sham-operated mice): induced significant mortality
